Measured values published in patent publication US20100204461 (published 2010).

Target: alpha-thrombin (UniProt P00734;P00734 P00734:328-363,P00734:364-622)
Test: fluorescence dequenching at 277 nM TAL2, protein ratios 1:1 to 100:1; t1/2 about 30 min at 10-fold excess; 10 mM KCl, 5 mM MgCl2, 12.5 mM Tris acetate pH 6.5

B1: TAL2 beacon with Dabcyl anchor (structured_DNA)
DNA 1: GGTTGGTTTGGTTGGCAACCTCTGCTACGTG
DNA 2: CACGTAGCAG
modifications: anchor 5' NH2-(CH2)6
- binding result: binds
